B1: MAb AR1B (antibody, V domains shown)
VH: LESGGGLVQPGGSLRLSCEASGYYFSSFAMSWVRQTPGKGLEWVSSIAGGTLGRTSYRDSVKGRFTISRDNSKNTVFLHMNNLRPEDTAVYYCAKDPLLFAGGPNWFDHWGQGTLVTVSS
VL: not shown
notes: also called IgG1 of Fab D1
B2: MAb AR1A (antibody, V domains shown)
VH: LEQSGAEVKKPGSSVKVSCRASGSPYSSYTITWVRQAPGQGLEWMGGIILMTGKANYAQKFQGRVTITADRATATAYMEMSSLTSDDTAIYYCARDPYVYAGDDVRSLSRWGQGTPVIVSS
VL: not shown
notes: also called IgG1 of Fab B2
B3: MAb AR3C (antibody, V domains shown)
VH: LEQSGAEVKKPGSSVKVSCETSGGTLDNYALNWVRQAPGQGLEWIGGVVPLFGTTRNAQKFQGRVTISDDKSTGTGHMELRSLRSEDTAVYYCVRSVTPRYCGGGFCYGEFDYWGQGTLVTVSS
VL: ELTQSPATLSVSPGERATLSCRASQSVSSNLAWYQQKPGQAPRLLIYGASTRATGIPARFSGSGSGTEFTLTVSRLEPEDSAVYFCQQYYRSPLTFGGGTKVEIKR
notes: also called IgG1 of Fab H3
B4: MAb AR2A (antibody, V domains shown)
VH: LEQSGAEMKKPGASLKVSCKTSGYTFDDYGVTWVRQAPGQGLEWMGWISAYSGNTFYARKFQGRVTMTTDPSTRTAYMELRSLRSDDTAVYFCARDRGLAINGVVFPYFGLDVWGQGTTVTVSS
VL: ELTQSPVSLPVTPGEPASISCRSSQSLLHSNGNHYLDWYLQKPGQSPQLLMYLGSNRASGVPDRFSGSGSGTDFTLKISRVEAEDVGVYYCMQGLQTPWTFGQGTKVEIKR
notes: also called IgG1 of Fab G

Legend:
H77 E1E2 mutant H421A = H77 E1E2 mutant H421A (HCV isolate H77, UniProt P27958 192-383; P27958 384-746); experiment: ELISA, alanine mutant E1E2
H77 E1E2 mutant N532A = H77 E1E2 mutant N532A (HCV isolate H77, UniProt P27958 192-383; P27958 384-746); experiment: ELISA, alanine mutant E1E2
H77 E1E2 mutant N540A = H77 E1E2 mutant N540A (HCV isolate H77, UniProt P27958 192-383; P27958 384-746); experiment: ELISA, alanine mutant E1E2
H77 E1E2 mutant R483A = H77 E1E2 mutant R483A (HCV isolate H77, UniProt P27958 192-383; P27958 384-746); experiment: ELISA, alanine mutant E1E2
H77 E1E2 mutant D533A = H77 E1E2 mutant D533A (HCV isolate H77, UniProt P27958 192-383; P27958 384-746); experiment: ELISA, alanine mutant E1E2
H77 E1E2 mutant T534A = H77 E1E2 mutant T534A (HCV isolate H77, UniProt P27958 192-383; P27958 384-746); experiment: ELISA, alanine mutant E1E2
[1] = target: T1, vaccinia-expressed E1E2 complex, isolate HCV-1 (genotype 1a) (hepatitis C virus, isolate HCV-1, UniProt P26664 192-383; P26664 384-746); experiment: competition ELISA on HCV-1 E1E2; competitor m31 (11/20)
[2] = target: T2, E1E2 complex of HCV isolate H77 (genotype 1a), wild type (HCV isolate H77, UniProt P27958 192-383; P27958 384-746); experiment: competition ELISA on H77 E1E2; competitor m44 (Fab P2)
[3] = target: T1, vaccinia-expressed E1E2 complex, …; experiment: competition ELISA on HCV-1 E1E2; competitor m21 (CBH-5)
[4] = target: T1, vaccinia-expressed E1E2 complex, …; experiment: competition ELISA on HCV-1 E1E2; competitor m34 (6/53)
[5] = target: T1, vaccinia-expressed E1E2 complex, …; experiment: competition ELISA on HCV-1 E1E2; competitor m30 (7/16B)
[6] = target: T1, vaccinia-expressed E1E2 complex, …; experiment: competition ELISA on HCV-1 E1E2; competitor m35 (ALP98)
[7] = target: T2, E1E2 complex of HCV isolate H77 …; experiment: cell-based or functional assay
[8] = target: E1E2 (Env) of HCV isolate OH8 (genotype 1b) on HCVpp (hepatitis C virus, isolate OH8); experiment: cell-based or functional assay
[9] = target: VSV (control pseudotype virus envelope); experiment: cell-based or functional assay
[10] = target: E1E2 (Env) of HCV isolate UKN2A1.2 (genotype 2a) on HCVpp (hepatitis C virus, isolate UKN2A1.2); experiment: cell-based or functional assay
[11] = target: E1E2 (Env) of HCV isolate J6 (genotype 2a) on HCVpp (hepatitis C virus, isolate J6, UniProt P26660 192-383; P26660 384-750); experiment: cell-based or functional assay
[12] = target: E1E2 (Env) of HCV isolate UKN1B12.16 (genotype 1b) on HCVpp (hepatitis C virus, isolate UKN1B12.16); experiment: cell-based or functional assay
[13] = target: E1E2 (Env) of HCV isolate UKN2B1.1 (genotype 2b) on HCVpp (hepatitis C virus, isolate UKN2B1.1); experiment: cell-based or functional assay
[14] = target: E1E2 (Env) of HCV isolate UKN5.15.7 (genotype 5) on HCVpp (hepatitis C virus, isolate UKN5.15.7); experiment: cell-based or functional assay
[15] = target: E1E2 (Env) of HCV isolate UKN4.21.16 (genotype 4) on HCVpp (hepatitis C virus, isolate UKN4.21.16); experiment: cell-based or functional assay
[16] = target: T1, vaccinia-expressed E1E2 complex, …; experiment: competition ELISA on HCV-1 E1E2; competitor m33 (9/75)
[17] = target: T1, vaccinia-expressed E1E2 complex, …; experiment: competition ELISA on HCV-1 E1E2; competitor m6 (AR3C)
[18] = target: T1, vaccinia-expressed E1E2 complex, …; experiment: competition ELISA on HCV-1 E1E2; competitor m28 (1/39)
[19] = target: T2, E1E2 complex of HCV isolate H77 …; experiment: competition ELISA on H77 E1E2; competitor m40 (Fab N4)
[20] = target: E1E2 (Env) of HCV isolate H (genotype 1a) on HCVpp (hepatitis C virus, isolate H); experiment: cell-based or functional assay

Binder	binding vs wild-type E1E2 (H77 E1E2 mutant H421A) [%]	% residual binding [1] [%]	% residual binding [2] [%]	% residual binding [3] [%]	% residual binding [4] [%]	% residual binding [5] [%]	% residual binding [6] [%]	Neutralizing activity (IC50) on HCVpp [7] [mg/L]	Neutralizing activity (IC50) on HCVpp [8] [mg/L]	Neutralizing activity (IC50) on control pseudotype virus [9] [mg/L]	Neutralizing activity (IC50) on HCVpp [10] [mg/L]	Neutralizing activity (IC50) on HCVpp [11] [mg/L]	Neutralizing activity (IC50) on HCVpp [12] [mg/L]	Neutralizing activity (IC50) on HCVpp [13] [mg/L]	Neutralizing activity (IC50) on HCVpp [14] [mg/L]	Neutralizing activity (IC50) on HCVpp [15] [mg/L]	% residual binding [16] [%]	% residual binding [17] [%]	% residual binding [18] [%]	% residual binding [19] [%]	other results
B1	72	79	99	89	92	91	92	> 50	> 50	> 50	> 50	> 50	> 50	> 50	> 50	> 50	38	66	89	95	binding vs wild-type E1E2 (H77 E1E2 mutant N532A): 73%; binding vs wild-type E1E2 (H77 E1E2 mutant N540A): 25%; binding vs wild-type E1E2 (H77 E1E2 mutant R483A): 32%; binding vs wild-type E1E2 (H77 E1E2 mutant D533A): 90%; binding vs wild-type E1E2 (H77 E1E2 mutant T534A): 49%
B2	167	84	91	54	89	86	92	> 50	> 50	> 50	> 50	> 50	> 50	> 50	> 50	> 50	24	37	84	94	binding vs wild-type E1E2 (H77 E1E2 mutant N532A): 82%; binding vs wild-type E1E2 (H77 E1E2 mutant N540A): 0%; binding vs wild-type E1E2 (H77 E1E2 mutant R483A): 64%; binding vs wild-type E1E2 (H77 E1E2 mutant D533A): 101%; binding vs wild-type E1E2 (H77 E1E2 mutant T534A): 100%
B3	–	62	140	19	105	99	99	1	5	> 50	10	10	1	10	1	1	51	8	83	112	Neutralizing activity (IC50) on HCVpp [20]: 1 mg/L
B4	84	84	82	91	92	95	94	1	> 50	> 50	5	> 50	> 50	10	10	1	82	86	90	74	binding vs wild-type E1E2 (H77 E1E2 mutant N532A): 58%; binding vs wild-type E1E2 (H77 E1E2 mutant N540A): 30%; binding vs wild-type E1E2 (H77 E1E2 mutant R483A): 68%; binding vs wild-type E1E2 (H77 E1E2 mutant D533A): 60%; binding vs wild-type E1E2 (H77 E1E2 mutant T534A): 84%; Neutralizing activity (IC50) on HCVpp [20]: 5 mg/L

Source: patent publication US20110311550A1 (Scripps Research, published 2011)
